# Laboratory results as given in patent publication US20200002439A1.
# Legend:
# [1] = molecular target: human TGFβ1 (human) (UniProt P01137)
# [2] = molecular target: recombinant human Ang2 (human) (UniProt O15123); test: blocking ELISA: Ang2 coated on the plate, binding of recombinant human Tie2 is blocked
# [3] = molecular target: His tagged human Angiopoietin-2 (human) (UniProt O15123); test: bio-layer interferometry, rhAng2-His
# Chain of His tagged human Angiopoietin-2 (human) (O15123 19-496 limits assumed): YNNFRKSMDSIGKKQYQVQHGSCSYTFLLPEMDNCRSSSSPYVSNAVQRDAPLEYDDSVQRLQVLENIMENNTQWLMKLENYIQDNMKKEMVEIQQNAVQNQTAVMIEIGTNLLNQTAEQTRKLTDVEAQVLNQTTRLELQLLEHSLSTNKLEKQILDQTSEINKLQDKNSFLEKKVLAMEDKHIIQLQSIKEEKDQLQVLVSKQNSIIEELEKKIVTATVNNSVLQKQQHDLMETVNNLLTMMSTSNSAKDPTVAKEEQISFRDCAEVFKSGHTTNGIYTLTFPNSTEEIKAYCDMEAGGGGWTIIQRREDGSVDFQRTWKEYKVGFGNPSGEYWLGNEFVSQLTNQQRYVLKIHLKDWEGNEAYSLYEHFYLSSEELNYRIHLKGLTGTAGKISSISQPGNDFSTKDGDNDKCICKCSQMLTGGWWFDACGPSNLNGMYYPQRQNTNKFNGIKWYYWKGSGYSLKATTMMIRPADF
# Chain of recombinant human Ang2 (human) (O15123 19-496 limits assumed): as above
# Chain of human TGFβ1 (human) (P01137 279-390 limits assumed): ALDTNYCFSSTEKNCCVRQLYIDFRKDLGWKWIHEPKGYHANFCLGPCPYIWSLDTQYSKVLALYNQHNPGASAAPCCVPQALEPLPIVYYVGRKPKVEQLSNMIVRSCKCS
IC50; luciferase signal of TGFβ/SMAD SBE Reporter-HEK293 cells stimulated with human TGFβ1 [1] [nM],IC50 [2] [nM],Kd [3] [nM],koff [3] [s⁻¹],kon [3] [M⁻¹ s⁻¹],Substance
2.02,–,–,–,–,TGFβ1 RII-Fc (from UniProt P37173 24-159) (Fc fusion)
–,0.57,–,–,–,bevacizumab-trebananib
–,0.5,1.23,0.000146,119000,trebananib (Fc fusion)
